Here are results for one molecule from article PMC10760634 (Genes & Development, 2023).

The target in the assay is UBE2D2 (wild type) (UniProt P62837 1-147). As to the kind of experiment: ITC.
Sequence of UBE2D2 (wild type) (P62837 whole entry): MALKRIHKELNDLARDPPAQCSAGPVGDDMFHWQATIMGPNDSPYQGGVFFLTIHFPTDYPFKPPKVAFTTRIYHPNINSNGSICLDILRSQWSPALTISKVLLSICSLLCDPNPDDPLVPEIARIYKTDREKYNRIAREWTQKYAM

B1: PHF7 (mPHF7 28–307) (domain or fragment)
chain: SSSPVCLLCLQEPGDPEKLGEFLQKDNLCVHYFCLILSSRLPQKGQPNRGLHGFMPEDIKREAVRASKKICFVCKKKGAAIRCQNDQCVQNFHLPCGQERGCLSQFFGEYKSYCRKHRPTQNIHQGSLGEESCVLCCENLSRTSVENIQSPCCSQAIYHRKCIQKYAHTSAKHFFKCPQCNNREEFPQEMLRMGIHIPDRDAAWELEPGAFSELYQRYRHCDAPICLYEQGRDSFEDEGRWRLILCATCGSHGTHRDCSSLRPNSKKWECNECLPASTTS
modifications: RED-NHS dye label (in the MST assay only)
For the molecule B1, the binding result is recorded as “binds”.
